The nanobody polyreactivity screen of Harvey et al. (2022)

Test: yeast display, Sf9 membrane polyspecificity reagent, FACS + sequencing; frameworks hold sequencing errors
Outline: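 Galactose induction of a Saccharomyces cerevisiae BJ5465 synthetic nanobody display library ran 36–48 hours. The cells were then stained for 1 hour at 4 °C with 10% biotinylated, detergent-solubilized Sf9 membrane reagent, pulled down on streptavidin microbeads and FACS-sorted into low and high (top ~1%) gates on expression and reagent-binding fluorescence. Labels for polyreactivity follow the gate of origin.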

QVQLVESGGGLVQAGGSLRLSCAASGRIFGGYGRGWYRQAPGKERELVAAITSGDGSTYAESVKGRFTISRDNAKNTVYLQMNSLKPEDTAVYYCADESFGYSIDITDHEYWGQGTQVTVSS
polyreactivity (PSR sort gate): high polyreactivity

QVQLVESGGGLVQAGGSLRLSCAASGSTFASHVMGWYRQAPGKERELVAAITRGDRTHYADSVKGRFTISRDNAKNTVYLQMNSLKPEDTAVYYCAKVTTLGRSRDYWGQGTQVTVSS
polyreactivity (PSR sort gate): low polyreactivity

QVQLVESGGGLVQAGGSLRLSCAASGITFVHYAMGWYIQAPGKERELVAAISEDGGSTYYADSVKGRFTISRDNAKNTVYLQMNSLKPEDTAVYYCNTYSGLWPYWRLYDYWGQGTQVTVSS
polyreactivity (PSR sort gate): high polyreactivity

QVQLVESGGGLVQAGGSLRLSCAASGRTFYFNTMGWYRQAPGKERELVATISWSGGRTYYADSVKGRFTISRDNAKNTVYLQMNSLKPEDTAVYYCAAVRYRGFDYWGQGTQVTVSS
polyreactivity (PSR sort gate): high polyreactivity

QLQLVESGGGLVQARGSLRLSCASSGSPFEGYAMGRSRQAPGKERELVARITIGGSTNYADSVKGRFTISRDNAKNSVYLQMNSLKPDDTAVYYCAADYRWGYYFTFYYWGQGTQVTVSY
polyreactivity (PSR sort gate): high polyreactivity

QVQLVESGGGLVQAGGSLRLSCAASGRIFTRYGMGWYRQAPGKEREFVAGISWSGGSTFYADSVKGRFTISRDNAKNTVYLQMHSLKPEDTAVYYCAARLYLRRPYEYWGQGTQVTVSS
polyreactivity (PSR sort gate): high polyreactivity

QVQLVESGGGLVQAGGSLRLSCAASGITFRNYAMGWYRQAPGKERELVADITTGGSTYADSVKGRFTISRDNAKNTVYLQMNSLKPEDTAVYDCAADRDFRTPRLYYWGQGTQVTVSS
polyreactivity (PSR sort gate): low polyreactivity

QVQLVESGGGLVQAGGSLRLTCAASGFIFRSYAMGWYRQAPGKERELVAAINSRAGNTYYADSVKGRFTISRDNAKNTVYLQMNSLKPEDTAVYYCAVRSYSPRSRGMGYWGQGTQVTVSS
polyreactivity (PSR sort gate): high polyreactivity

QVQLVESGGGLVQAGGSLRLSCAASGLTFSAYAMGWYRQAPGKERELVAAITSSGGSTYADSVKGRFTISRDNAKNTVYLQMNSLKPEDTAVYYCNADLGDYGWYSSYDYWGQGTQVTVSS
polyreactivity (PSR sort gate): low polyreactivity

QVQLVESGGGLVQAGGSLRLSCAASGFTFRRNAMGWYRQAPGKEREFVAAITRSGGSTYYADSVKGRFTISRDNAKNTVYLQMNSLKPEDTAVYYCAADLPRWGSYGYGKMDHWGQGTQVTVSS
polyreactivity (PSR sort gate): high polyreactivity

QVQLVESGGGLVQAGGSLRLSCAASGITLFGYAMGWYRQAPGKERELVAVITSDGGRTYYADSVKGRFTISRDNAKNTVYLQMNSLKPEDTAVYYCAARAYDRTSGYYYWGQGTQVTVSS
polyreactivity (PSR sort gate): low polyreactivity

QVQLVESGGGLVQAGGSLRLSCAASGYTFRNYAMGWYRQAPGKERELVAAISTRGVSTYYADSVKGRFTISRDNAKNTVYLQMNSLKPEDTADYYCAAAGGRYSRAAYDYWGQGTQVTVSS
polyreactivity (PSR sort gate): low polyreactivity

QVQLVESGGGLVQAGGSLRLSCAASGRTFSVNAMGWYRQAPGKERELVAAITSGASTNYADSVKGRFTMSRDNAKNTVYLQMNSLKPEDTAVYYCAADATYGHVPAEYDYWGQGTQVTVSS
polyreactivity (PSR sort gate): low polyreactivity

QVQLVESGGGLGQAGGSLRLSCAASGRIFTFNAMGWYRQAPGKARELVAAISSRGDGTYYADSVKGRFTISRDNAKNTVYLQMNSLKPEDTAVYDCAADVYPYQSLSYPLQYELDYWGQGTQVTVSS
polyreactivity (PSR sort gate): low polyreactivity

QVQLVESGGGLVQAGGSLRLSCAASGYIFYNYAMGWYRQAPGKERELVAAISRRGGSTYYADSVKGRFTISRDNAKNTVYLEMNSLKPEDTAVYYCAAKQYGWNLYGYWGQGTQVTVSS
polyreactivity (PSR sort gate): high polyreactivity

QVQLVESGGGLVQAGGSLRLTCAASGRTFYVNAMGWYRQAHGKERELVATISRGGSTHYADSVKGRFTISRDNAKYTVYLQLNSLKPEDTAVYYCAAPGRTSVYRYYYWGQGTQVTVSS
polyreactivity (PSR sort gate): high polyreactivity

QVQLVESGGGLVQAGGSLRLSCAASGRIFGLYAMGWYRQAPGKEREFVAAINWDGGSTFYADSVKGRFTISRDNAKNTVYLQMNSLKPEDTAVYYCAADVYSYVSYSTYVSVFTYDYWGQGTQVTVSS
polyreactivity (PSR sort gate): low polyreactivity

QVQLVESGGGLVQAGGSLRLICAASGFIFSRYTMGWYRQAPGKERELVAAISKRGGSTYYADSVKGRFTISRDNAKNTVYLQMNSLKPEDTAVYYCAADRLPSGSLVEYWGQGTQVTVSS
polyreactivity (PSR sort gate): high polyreactivity

QVQLVESGGGLVQAGGSLRLSCAGSGSTFRSNALGWYRQEPGKVRELVAAISLRGGSTDYADSVKGRFTISRDNAKNTVYLQMNSLTPEDTAVYFCAKVSKRVGFPTAMNYWGHGTQVTVSS
polyreactivity (PSR sort gate): high polyreactivity

QVQLVESGGGLVQAGGSLRLSCAASGSTFPSYVMGWSRQAPGKARELVAAISSSGGRTYYADSVKGRFTISRDNAKNTVYLQMNSLKPEDTAVYYCAAKRGPLVYDHDYWGQGTQVTVSS
polyreactivity (PSR sort gate): high polyreactivity

QVQLVESGGGLVQAGGSLRLSCAASGSIFYYNAMGWYRPAPGKERELVADISTSGSTYYADSVKGRFTISRDNAKNTVYLQMNSLKPEDTAVYYCNADYLPQEGEFSYPYDYWGQGTQVTVSS
polyreactivity (PSR sort gate): low polyreactivity

QVQLVESGGGLVQAGGSLRLSCAASGSIFRGYAMGWYRQAPGKERELVAAITSRGGSTYYADSVKGRFTISRDIAKNTVYLQMNSLKPEDTAVYYCNKRVYYPWGQGTQVTVSS
polyreactivity (PSR sort gate): high polyreactivity

QVQLVESGGGLVQAGGSLRLSCASSGRIFGLYAMGWNRQAPGKERELVAAISRGGGSTYYADSVKGRFTISRDNAKNTVYLQMNSLKPEDTAVYYCATGLGYFSRLDYWGQGTQVTVSS
polyreactivity (PSR sort gate): low polyreactivity

QVQLVESGGGLVQAGGSLRLSCAASGSTLTFNAMGWYRQAPWKERELVAAISWSDTDTYYADSVKGRFTISRDNAKNTVYLQMNSLKPEDTAVYYCAATLSAYEMDYWGQATQVTVSS
polyreactivity (PSR sort gate): low polyreactivity

QGQLVESGGGLVQAGGSLRLSCAASGYTFNYNTMGWYRQAPGKVRELVAAINTSGSTYYADSVKGRFTISRDNAKNTVYLQMNSLKPEDTAVYYCAVRVAYKYNYWGQGTQVTVSS
polyreactivity (PSR sort gate): high polyreactivity

QVQLVESGGGLVQAGGILRLSCAASGLTFRDYAMGWYRQAPGKERELVAAISWNGSSTNYADSVKGRFTISRDNAKNTVYLQMNSLKPEDTSVYYCNAYYYYRRPLEGGYWGQGTQVTVSS
polyreactivity (PSR sort gate): low polyreactivity

QVQLVESGGGLVQAGGSLRLSCAASGFTFRYYAMGWYRQAPGKERELVAAIRRSGGSTYYADSVKGRFTISRDNAKNTVYLQMNSLKPEDTAVYYCAAVGPTYWRGYPSGYDYWGQGTQVTVSS
polyreactivity (PSR sort gate): high polyreactivity

QVLLVESGGGLVHAGGSLRLSCAASGSISKINAMRRYRQAPGKERELVAAINTGDSTYYADSVKGRFTISRDNAKYTGYLQMNSLKPEDTAVYYCAAEGSPSGYDYWGQGTQVNVSS
polyreactivity (PSR sort gate): low polyreactivity

QVQLVESGGGLVQAGGILRLSCAASGFTFGWNAMGWYRQAPGKERELVAAITSGGITNYADSVKGRFTISRDNAKNTVYLQMNSLKPEDTAVYYCNARPTSRRSWYYWKGYDYWGQGTQVTVSS
polyreactivity (PSR sort gate): high polyreactivity

QVQLVESGGGLVQAGGSLRLSCAASGSIFYWYAMGWYRQAPGKERELVASITTAGSTYYADSVKGRFTISRDNAKNTVYLQMNSLKPEDTAVYYCNTVPYGYHGYLYLYTYGYWGQGTQVTVSS
polyreactivity (PSR sort gate): high polyreactivity

QVQLVETGGGLVQAGGILRLSCAASGSTFGYNAMGWYRQAPGKERELVASITWSSGSTYYADSVKGRFTISRDNAKNTVYLQMNSLKPEDSAVYYCYAKRFRHYGGYYYWGQGTQVTVSS
polyreactivity (PSR sort gate): low polyreactivity

QVQLVESGGGLVQAGGSLRLSFAASGFIFGLNAKGWYRQAPAKERELVAAIRWRGDTTYYADSVKGRFTISRDNAKNTVYLQMKSLKPEDTAVYSCNAVVVPSRYDYWGQGTQVTVSS
polyreactivity (PSR sort gate): low polyreactivity

QVQLVESGGGLVQAGGSLRLSCAASGSIFDNNAMGWYRQAPGKERELVAVITRSGGSTHYADSVKGRFTISRDNAKNTVYLQMNSLKPEDTAVYYCATDGLFYVDGSWTLGYWGQGTQVTVSS
polyreactivity (PSR sort gate): low polyreactivity

QVQLVDSGGGLVQAGGSLRLSCAASGRTFKRYDMGWYRQAPRKEREFVAAISWTGGSTYYADTVKGRFTISRDNEKNTVYLQMNSLKPEDTAVYYCARKFLWKGFDYWGQGTQVTVSS
polyreactivity (PSR sort gate): low polyreactivity

QGQLVESGGGLVQAGGSLRLSCAASGLTFSPNAMGWYRQEPGKERELVAAISSSGGRTNYADSVKGRFTISRDNAKNPVYLLMNSLKPEDTAVYYCFTNSFYEDDDWGQGTQVTVSS
polyreactivity (PSR sort gate): high polyreactivity

QVQLVESGGGLVQAGGSLRLSCAASGRIFTGNAMGWYRQAPGKERELVAAITFSGGSTYYADSVKGRFTISRDNAKNTVYLQMNSLKPEDTAVYYCATRSAWYGNWYYYWGQGTQVTVSS
polyreactivity (PSR sort gate): high polyreactivity

QAELVESGGGLVQAGGSLRLSCAASGFTFTAYPMGWYRQAPGKERELVAAISYRGGRTNYAYSVKGRFTISRDNAKNTVYLQMNRLKPEDTAVYYCAARPRISTREMDYWGQGTQVTVSS
polyreactivity (PSR sort gate): high polyreactivity

QVQLVESGGGLVQAGGSLRLSCAASGFIFWQYTMAWYRQAPGKERELVAAISFSGGRTYYADSVKGRFTISRDNAKNTVYLQMNSLKPEDTAVYYCAASAVPRQKGFYYWGQGTQVTVSS
polyreactivity (PSR sort gate): high polyreactivity

QVQLVESGGGLVQAGGSLRLSCAASGGTFSKNAMGWSRQAPGKERELVADIRSGGSTYYADSVKGRFTISRDNAKNTVYLQMNSLKPEDTAVYYCNADGDVNEYDYWGQGTQVTVSS
polyreactivity (PSR sort gate): low polyreactivity

QVQLVESGGGLVQAGGSLRLSCAASGRTFVYNAMGWYRQAPGKERELVAAITTSGASTYYADSVKGRFTISRDNAKNTVYLQMNSLKPEDTAVYYCNAYSRYSYGRTYGYWGQGTQVTVSS
polyreactivity (PSR sort gate): high polyreactivity

QVQLVESGGGLVQAGGSLRLSCDASGRIFHIYAMGWYREAPGKERELVASISWSGDSTYYADSVKGRFTISRDNAKNTVYLQINSLKPEDTAVYYFAAEGEETEGYDYDYWGQGTQVTVSS
polyreactivity (PSR sort gate): low polyreactivity

QVQLQESGGGMVQAGGSLRLSCAASGYISWADYMVWYRQAPGKERELVAGIGYGSTTYYADSVKGRFTISRDNAKNTAYLQMNSLKPEDTAVYYCAVGWYRDTAYKYWGQGTQVTVSS
polyreactivity (PSR sort gate): low polyreactivity

QVQLVESGGGLVQAGGSLRLSCAASGFTFYSYAMGWYRQAPGKERELVAAISWSGTRTYYADSVKGRFTISRDNAKYTVYLQMNSLKPEDTAVYYCAARGYRYGYGYWGQGTQVTVSS
polyreactivity (PSR sort gate): high polyreactivity
